B1: Mitogen-activated protein kinase kinase kinase 3 (Homo sapiens), Q99759 (parent)
chain: MDEQEALNSIMNDLVALQMNRRHRMPGYETMKNKDTGHSNRQSDVRIKFEHNGERRIIAFSRPVKYEDVEHKVTTVFGQPLDLHYMNNELSILLKNQDDLDKAIDILDRSSSMKSLRILLLSQDRNHNSSSPHSGVSRQVRIKASQSAGDINTIYQPPEPRSRHLSVSSQNPGRSSPPPGYVPERQQHIARQGSYTSINSEGEFIPETSEQCMLDPLSSAENSLSGSCQSLDRSADSPSFRKSRMSRAQSFPDNRQEYSDRETQLYDKGVKGGTYPRRYHVSVHHKDYSDGRRTFPRIRRHQGNLFTLVPSSRSLSTNGENMGLAVQYLDPRGRLRSADSENALSVQERNVPTKSPSAPINWRRGKLLGQGAFGRVYLCYDVDTGRELASKQVQFDPDSPETSKEVSALECEIQLLKNLQHERIVQYYGCLRDRAEKTLTIFMEYMPGGSVKDQLKAYGALTESVTRKYTRQILEGMSYLHSNMIVHRDIKGANILRDSAGNVKLGDFGASKRLQTICMSGTGMRSVTGTPYWMSPEVISGEGYGRKADVWSLGCTVVEMLTEKPPWAEYEAMAAIFKIATQPTNPQLPSHISEHGRDFLRRIFVEARQRPSAEELLTHHFAQLMY

In the test the parent is B1. As to conditions: with mk03_human MAPK3, P27361.
Sequence of mk03_human MAPK3, P27361 (P27361 whole entry): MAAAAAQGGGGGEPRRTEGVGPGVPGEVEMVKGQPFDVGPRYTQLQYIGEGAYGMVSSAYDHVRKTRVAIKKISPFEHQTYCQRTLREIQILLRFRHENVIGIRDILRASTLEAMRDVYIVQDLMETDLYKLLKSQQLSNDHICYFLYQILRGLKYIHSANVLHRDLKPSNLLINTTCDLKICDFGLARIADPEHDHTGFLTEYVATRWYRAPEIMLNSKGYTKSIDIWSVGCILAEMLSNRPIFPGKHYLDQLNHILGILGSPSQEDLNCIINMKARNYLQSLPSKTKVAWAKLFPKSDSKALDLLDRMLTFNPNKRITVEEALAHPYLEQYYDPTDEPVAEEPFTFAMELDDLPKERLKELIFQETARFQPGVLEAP
With T530A, the “effect of a mutation on the interaction” value was “disrupting interaction”.

Turning to S526A, the “effect of a mutation on the interaction” value was “disrupting interaction”.

For K391M, the “effect of a mutation on the interaction” value is reported as “disrupting interaction”.
